Like-named read-outs stand apart in the source and are kept apart here.
T1: Human-NKP30-His (Kactus, cat: NKP-HM430) (human, UniProt O14931 19-138, limits assumed)
T1 construct: also called NKP30 protein; NKP30-his protein; not shown: His tag
T1 sequence (looked up): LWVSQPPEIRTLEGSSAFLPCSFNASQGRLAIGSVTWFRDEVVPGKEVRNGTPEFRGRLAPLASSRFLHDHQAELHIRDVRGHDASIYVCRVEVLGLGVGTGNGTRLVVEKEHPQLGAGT

B1: GN15-D (bispecific antibody, human IgG1, kappa)
light: DVVMTQSPLSLPVTPGEPASISCRSSQSLVHSNRNTYLHWYLQKPGQSPQLLIYKVSNRFSGVPDRFSGSGSGTDFTLKISRVEAEDVGVYYCSQNTHVPPTFGQGTKLEIKRTVAAPSVFIFPPSDEQLKSGTASVVCLLNNFYPREAKVQWKVDNALQSGNSQESVTEQDSKDSTYSLSSTLTLSKADYEKHKVYACEVTHQGLSSPVTKSFNRGEC
heavy 1: not shown
heavy 2: QVQLVQSGAEVKKPGASVKVSCKASGYTFTDYEMHWVRQAPGQGLEWMGALDPKTGDTAYSQKFKGRVTLTADKSTSTAYMELSSLTSEDTAVYYCTRFYSYTYWGQGTLVTVSSASTKGPSVFPLAPSSKSTSGGTAALGCLVKDYFPEPVTVSWNSGALTSGVHTFPAVLQSSGLYSLSSVVTVPSSSLGTQTYICNVNHKPSNTKVDKKVEPKSCDKTHTCPPCPGGGGSGGGGSPALLLLLLLRPPATRGITCPPPMSVEHADIWVKSYSLYSRERYICNSGFKRKAGTSSLTECVLNKATNVAHWTTPSLKCIRDPALVHQRPAPPSTVTTAGVTPQPESLSPSGKEGGGGSGGGGSAPELLGGPSVFLFPPKPKDTLMISRTPEVTCVVVDVSHEDPEVKFNWYVDGVEVHNAKTKPREEQYNSTYRVVSVLTVLHQDWLNGKEYKCKVSNKALPAPIEKTISKAKGQPREPQVYTLPPSRDELTKNQVSLTCLVKGFYPSDIAVEWESNGQPENNYKTTPPVLDSDGSFFLASKLTVDKSRWQQGNVFSCSVMHEALHNHYTQKSLSLSPGKGGGGSGGGGSGGGGSGGGGSEVQLVESGGGLVQPGGSLRLSCAASGITFSRSVMGWFRQAPGKLRELVAGITSDDNTDYADSVKGRFTISRDNSKNTLYLQMNSLRAEDTAVYYCNILPDSRLGWGQGTLVTVSS
notes: Trifunctional antibody against GPC-3 and NKP30 with IL-15 and IL-15Rα sushi between CH1 and CH2; also called constructed antibody GN15-D; multifunctional antibody
B2: GN15-B (bispecific antibody, human IgG1, kappa)
light: B1 light
heavy 1: not shown
heavy 2: EVQLVESGGGLVQPGGSLRLSCAASGITFSRSVMGWFRQAPGKLRELVAGITSDDNTDYADSVKGRFTISRDNSKNTLYLQMNSLRAEDTAVYYCNILPDSRLGWGQGTLVTVSSGGGGSGGGGSGGGGSQVQLVQSGAEVKKPGASVKVSCKASGYTFTDYEMHWVRQAPGQGLEWMGALDPKTGDTAYSQKFKGRVTLTADKSTSTAYMELSSLTSEDTAVYYCTRFYSYTYWGQGTLVTVSSASTKGPSVFPLAPSSKSTSGGTAALGCLVKDYFPEPVTVSWNSGALTSGVHTFPAVLQSSGLYSLSSVVTVPSSSLGTQTYICNVNHKPSNTKVDKKVEPKSCDKTHTCPPCPGGGGSGGGGSPALLLLLLLRPPATRGITCPPPMSVEHADIWVKSYSLYSRERYICNSGFKRKAGTSSLTECVLNKATNVAHWTTPSLKCIRDPALVHQRPAPPSTVTTAGVTPQPESLSPSGKEGGGGSGGGGSAPELLGGPSVFLFPPKPKDTLMISRTPEVTCVVVDVSHEDPEVKFNWYVDGVEVHNAKTKPREEQYNSTYRVVSVLTVLHQDWLNGKEYKCKVSNKALPAPIEKTISKAKGQPREPQVYTLPPSRDELTKNQVSLTCLVKGFYPSDIAVEWESNGQPENNYKTTPPVLDSDGSFFLASKLTVDKSRWQQGNVFSCSVMHEALHNHYTQKSLSLSPGK
notes: Trifunctional antibody against GPC-3 and NKP30 with IL-15 and IL-15Rα sushi between CH1 and CH2; also called constructed antibody GN15-B; multifunctional antibody

Key:
[1] = target: T1, Human-NKP30-His (Kactus, cat: NKP-HM430); assay: ELISA: Human-NKP30-His coated, antibody titrated 3-fold from 10 µg/mL, HRP goat anti-human IgG-Fc, OD450-OD570
Procedure: Human-NKP30-His (Kactus, cat: NKP-HM430) was diluted to […] with PBS buffer at pH 7.4, added into the 96-well ELISA plate at 100 μL per well, coated overnight at 4° C., and blocked with 1% BSA blocking solution for 1 hour. The plate was washed 3 times with PBST, and the constructed antibodies were diluted to 10 μg/mL with 0.5% BSA sample diluent as the starting concentration, and then diluted by 3-fold gradient (11 gradients in total). A negative control (blank well and IgG1 isotype control) and a positive control were set, and the positive control was a NKP30 humanized antibody (sequence shown in SEQ ID No. 28), and incubated at 37° C. for 1 h at 100 μL per well. The plate was washed 3 times with PBST, and then HRP-labelled goat anti-human IgG-Fc was diluted with the sample diluent at 1:20000. 100 μL was added into each well, and incubated at room temperature for 1 hour. The plate was washed 4 times with PBST, and 100 μL of TMB substrate was added into each well, and incubated at room temperature without light for 10 minutes. 100 μL of 1 M HCl solution was added into each well to terminate the color development reaction. The absorbance value of each well in the 96-well plate was determined by selecting the wavelength of 450 nm and the reference wavelength of 570 nm on a multifunctional enzyme marker, and the absorbance value (OD)=OD₄₅₀ₙₘ−OD₅₇₀ₙₘ. The logarithm of the concentration of the constructed antibody was taken as the abscissa, and the measured absorbance value of each well was taken as the ordinate, and the Sigmoidaldose-response (Variable Slope) method (GraphPad Prism software, GraphPad Software, San Diego, California) was selected for nonlinear regression to obtain the binding curve of the target antibody to NKP30.

Human-GPC3-His [2] = target: T2, Human-GPC3-His (human, UniProt P51654 25-559, limits assumed); assay: ELISA: Human-GPC3-His coated at 0.5 µg/mL, antibody titrated 3-fold from 10 µg/mL, HRP goat anti-human IgG-Fc, OD450-OD570
T2 construct: Coated on the ELISA plate; also called GPC-3 protein; GPC3 protein; not shown: His tag
T2 sequence (P51654 25-559 limits assumed): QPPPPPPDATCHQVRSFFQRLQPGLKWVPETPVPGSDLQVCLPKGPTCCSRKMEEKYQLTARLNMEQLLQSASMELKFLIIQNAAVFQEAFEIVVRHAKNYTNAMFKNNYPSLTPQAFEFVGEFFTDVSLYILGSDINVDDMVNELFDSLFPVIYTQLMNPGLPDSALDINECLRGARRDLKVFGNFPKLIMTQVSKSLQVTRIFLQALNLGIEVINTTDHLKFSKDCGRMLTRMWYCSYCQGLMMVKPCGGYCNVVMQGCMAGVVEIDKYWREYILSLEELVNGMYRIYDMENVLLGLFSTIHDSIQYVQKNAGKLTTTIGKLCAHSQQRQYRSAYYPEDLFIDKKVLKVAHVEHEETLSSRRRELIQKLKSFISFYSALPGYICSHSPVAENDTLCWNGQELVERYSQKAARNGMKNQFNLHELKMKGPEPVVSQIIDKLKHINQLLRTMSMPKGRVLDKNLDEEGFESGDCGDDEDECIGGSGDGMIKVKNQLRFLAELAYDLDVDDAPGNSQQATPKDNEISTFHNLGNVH
Procedure: (§1) Human-GPC3-His was diluted to 0.5 μg/mL with PBS buffer at pH 7.4, added into the 96-well ELISA plate at 100 μL per well, coated overnight at 4° C., and blocked with 1% BSA blocking solution for 1 hour. The plate was washed 3 times with PBST, and the constructed antibody was diluted to 10 μg/mL with 0.5% BSA sample diluent as the starting concentration, and then diluted by 3-fold gradient (11 gradients in total) and incubated at 37° C. for 1 h at 100 μL per well. The plate was washed 3 times with PBST, and then HRP-labelled goat anti-human IgG-Fc was diluted with the sample diluent at 1:20000. 100 μL was added into each well, and incubated at room temperature for 1 hour. A negative control (blank well and IgG1 isotype control) and a positive control were set, and the positive control was a GPC-3 and CD3 bispecial antibody from the literature Hs, A, et al. “Engineering a bispecific antibody with a common light chain: Identification and optimization of an anti-CD3 epsilon and anti-GPC3 bispecific antibody, ERY974.” Methods 154 (2019): 10-20. (The GPC-3 and CD3 bispecial antibody sequence consists of SEQ ID No. 22, SEQ ID No. 23, and SEQ ID No. 24). The plate was washed 4 times with PBST, and 100 μL of TMB substrate was added into each well, and incubated at room temperature without light for 10 minutes. 100 μL of 1 M HCl solution was added into each well to terminate the color development reaction. The absorbance value of each well in the 96-well plate was determined by selecting the wavelength of 450 nm and the reference wavelength of 570 nm on a multifunctional enzyme marker, and the absorbance value (OD)=OD₄₅₀ₙₘ−OD₅₇₀ₙₘ. The logarithm of the concentration of the constructed antibody was taken as the abscissa, and the measured absorbance value of each well was taken as the ordinate, and the Sigmoidaldose-response (Variable Slope) method (GraphPad Prism software, GraphPad Software, San Diego, California) was selected for nonlinear regression to obtain the binding curve of the target antibody to the GPC-3 protein.

Human-GPC3-His [3] = target: T2, Human-GPC3-His; assay: as above; remark: listed apart in the source
Procedure: as §1

Binder | EC50 (read off the curve) [1] [µg/mL] | EC50 (read off the curve) (Human-GPC3-His [2]) [µg/mL] | EC50 (read off the curve) (Human-GPC3-His [3]) [µg/mL]
B1 | ~0.03 | ~0.04 | –
B2 | ~0.03 | – | ~0.03

Reference: patent US20240218065A1 (SHENGHE CHINA BIOPHARMACEUTICAL, published 2024)
